According to paper PMC9335043, “The novel ZmTCP7 transcription factor targets AGPase-encoding gene ZmBt2 to regulate storage starch accumulation in maize”:

T1: GST-ZmTCP7 (Zea mays, UniProt B4FHV6 1-275)
T1 sequence: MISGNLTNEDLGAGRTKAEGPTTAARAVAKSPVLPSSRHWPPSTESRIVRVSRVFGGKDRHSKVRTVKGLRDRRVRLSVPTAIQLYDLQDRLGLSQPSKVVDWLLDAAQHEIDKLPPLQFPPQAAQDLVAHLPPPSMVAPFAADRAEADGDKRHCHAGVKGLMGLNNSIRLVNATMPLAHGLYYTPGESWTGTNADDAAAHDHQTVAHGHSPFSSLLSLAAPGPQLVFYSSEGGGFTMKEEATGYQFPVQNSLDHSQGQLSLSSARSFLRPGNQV

B1: unlabeled WT 30 bp competitor (dsDNA)
DNA 1: CACACTTTAGAACCCCACGCCTTTACCTAA
DNA 2: TTAGGTAAAGGCGTGGGGTTCTAAAGTGTG
B2: PWT (ZmBt2 promoter 30 bp probe) (dsDNA)
DNA 1: B1 DNA 1
DNA 2: B1 DNA 2
B3: PMu (mutated ZmBt2 promoter 30 bp probe) (dsDNA)
DNA 1: CACACTTTAGAAAAAACAGCCTTTACCTAA
DNA 2: TTAGGTAAAGGCTGTTTTTTCTAAAGTGTG

How the values were obtained:
GST-ZmTCP7 [1] = target: T1, GST-ZmTCP7; assay: competition; unlabeled competitor vs PWT: considerably reduced at 50x, almost completely removed at 100x; LightShift chemiluminescent EMSA kit buffer (composition and pH not stated), 25 C, 30 min, 8% PAGE; settings: protein: recombinant; tags: N-terminal GST (pGEX-6-1); chain copies: 2
GST-ZmTCP7 [2] = target: T1, GST-ZmTCP7; assay: EMSA; LightShift chemiluminescent EMSA kit buffer (composition and pH not stated), 25 C, 30 min, 8% PAGE; settings: protein: recombinant; tags: N-terminal GST (pGEX-6-1); chain copies: 2; label: 3' biotin

Row | Binder | binding result (GST-ZmTCP7 [1]) | binding result (GST-ZmTCP7 [2])
1 | B1 | binds | 
2 | B2 |  | binds
3 | B3 |  | no binding
